The values that follow come from US20200239590A1 (WASHINGTON UNIVERSITY, published 2020).

Experiment [1] deals with T1, recombinant TIP1 protein (tax interacting protein 1) (Homo sapiens (Human), UniProt O14907 2-124, limits assumed).
T1 construct: Purified recombinant TIP1 used as coat or analyte in ELISA, Western blot and Biacore
T1 sequence: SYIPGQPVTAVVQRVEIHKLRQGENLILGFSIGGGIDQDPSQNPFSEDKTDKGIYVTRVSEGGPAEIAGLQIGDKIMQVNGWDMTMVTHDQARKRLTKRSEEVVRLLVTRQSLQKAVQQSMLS
As to the kind of experiment: indirect ELISA, hybridoma supernatant dilutions on coated recombinant TIP1, anti-mouse HRP, TMB.

Experiment [2] addresses T2, TIP1 in or on human tumor cell lines (A549, H460, H23, U251) (human, UniProt O14907 2-124).
T2 construct: Endogenous TIP1 of tumor cell lines, not transfected cells; also called cell surface TIP1
T2 sequence: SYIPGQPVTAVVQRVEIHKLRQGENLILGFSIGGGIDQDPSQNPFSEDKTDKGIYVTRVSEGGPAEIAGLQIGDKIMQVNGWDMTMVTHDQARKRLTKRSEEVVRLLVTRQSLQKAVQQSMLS
As to the kind of experiment: flow cytometry, hybridoma supernatant on A549, H460 and H23 cells, Alexa Fluor 488 anti-mouse antibody. For orientation: Flow cytometry measures light scatter and fluorescence of single cells or particles in a stream.

B1: 4B12 mouse monoclonal anti-TIP1 antibody (antibody, V domains shown)
VH: QFQLQQSGAELARPGASVKLSCKASGYTFTSYGISWVKQRTGQGLEWIGEIYFRSGNIYYNEKFKGKATLTADKSSSTAYMELRSLTSEDSAVYFCARSKTFYSNYGGVFDYWGQGTTLTVSS
VL: DVLVTQTPLSLPVSLGDQASISCRSSRSIVHNNGNTYLEWYLQKPGQSPKLLIYKVSNRFSGVPDRFSGSGSGTDFTLKISRVEAEDLGVYYCFQGSHVPPTFGGGTRLEIK
notes: also called 4612
For the molecule B1, the binding result in experiment [1] is given as “binds”.

B2: 7H5 mouse monoclonal anti-TIP1 antibody (antibody, V domains shown)
VH: QAQLQQSGAELARPGASVRLSCKASGYILTSSGISWVKQRTGQGLEWIGEIYPRSGNTYYNEKFKGKATLTADKSSSIAYMDLRTLTSEDSAVYFCARSKTFYSKYGGVFDYWGQGTTLTVSS
VL: DVLMTQTPLSLPVSLGDQASISCRSSQNIVHNNGNTYLDWYLQKPGQSPKLLIYKVSNRFSGVPDRFSGSGSGADFTLKISRVEAEDLGVYYCFQGSHVPPTFGGGTKLEIK
notes: Mouse monoclonal from hybridoma
Take B2: the binding result in experiment [2] is listed as “binds”.

B3: 2F10 mouse monoclonal anti-TIP1 antibody (antibody, V domains shown)
VH: QVQLQQSGAELARPGASVKLSCKASGYTFTSSGISWVIQKTGQGLEWIGEIYPRSGNTYYNEKFKAKAALTADKSSSTAHMELRSLTSEDSAVYFCARSKTYYSKYGGFFDYWGQGTPLTVSS
VL: DVLMTQTPLSLPVSLGDQASISCRSSQSIVHGNGNTYLEWYLQKPGQSPKLLIHKVSNRFSGVPDRFSGSGSGTDFTLKISRVEAEDLGVYYCFQGSHVPPTFGGGTKLEIK
notes: Mouse monoclonal from hybridoma, tested as supernatant or purified
Regarding B3, the binding result in experiment [2] is recorded as “binds”.

B4: 3D6 mouse monoclonal anti-TIP1 antibody (antibody, V domains shown)
VH: QVQLHQSGAELARPGAAVKLTCKASGYTLTNSGISWVKQRSGQGLEWIGEIYPGSGNIYYNEKFKVKATLTADKSSSTTYMELRSLTSEDSAVYFCARSRTYYSKYGGLFDYWGQGATLTVSS
VL: DVLMTQTPLSLPVRLGDQASISCRSSQSLLHNNGNTYLEWYLQKPGQSPKLLIYKVSSRFSGVPDRFSGSGSGTDFTLKISRVEAKDLGVYYCFQGSHIPPTFGGGTKLEIK
notes: as for B2
Regarding B4, the binding result in experiment [2] is “binds”.
